Patent publication US20240116999A1 (TRUSTEES OF INDIANA UNIVERSITY, published 2024)
Bridge positions count the residues as written; N and C are the ends. Square brackets hold non-standard residues; d marks the D form. Ends that are not written are not given here. Orn = NCCC[C@H](N)C(=O)O

Target: glucagon receptor (GCGR)
Test: cell-based or functional assay

Row | Binder | EC50, cell-based cyclic AMP (cAMP) activity assay [µM]
1 | HSQGTFTSDYS[Orn]YLDS[Orn][Orn]AQDFVQWLMNTEEK [Glucagon-EEK] | 0.0935
2 | HSQGTFTSDYS[Orn]KLDSE[Orn]AQDFVQWLMNTEEK (lactam 13-17) [O12, O18, K13, E17-Lactam-Glucagon-EEK] | 0.126
